Laboratory results: patent US20230057602A1 (Bristol-Myers Squibb, published 2023)

Target: T1, human B cell maturation antigen (BCMA) (human, UniProt Q02223 1-184)
T1 sequence (looked up): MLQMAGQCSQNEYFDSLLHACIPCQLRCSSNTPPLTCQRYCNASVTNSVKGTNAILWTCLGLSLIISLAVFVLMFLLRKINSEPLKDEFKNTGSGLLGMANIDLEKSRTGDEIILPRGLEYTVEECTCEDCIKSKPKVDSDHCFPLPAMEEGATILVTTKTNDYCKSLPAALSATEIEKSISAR
Test: cell-based or functional assay

- IC50 (ng/ml) of redirected lysis, H929 cells co-cultured with healthy donor T cells (E:T 1:1, 72 h), DMSO control, mean of 3 donors: 3.42 ng/mL
- IC50 (ng/ml) of redirected lysis, H929 cells co-cultured with healthy donor T cells (E:T 1:1, 72 h), with 1 µM dexamethasone, mean of 3 donors: 6.52 ng/mL
- IC50 (ng/ml) of redirected lysis, KMS12-PE cells co-cultured with healthy donor T cells (E:T 1:1, 72 h), DMSO control, mean of 3 donors: 0.2 ng/mL
- IC50 (ng/ml) of redirected lysis, KMS12-PE cells co-cultured with healthy donor T cells (E:T 1:1, 72 h), with 1 µM dexamethasone, mean of 3 donors: 3.61 ng/mL
- IC50 (ng/ml) of redirected lysis, MM1S cells co-cultured with healthy donor T cells (E:T 1:1, 72 h), DMSO control, mean of 3 donors: 0.21 ng/mL
- IC50 (ng/ml) of redirected lysis, MM1S cells co-cultured with healthy donor T cells (E:T 1:1, 72 h), with 1 µM dexamethasone, mean of 3 donors: 3.31 ng/mL
- IC50 (ng/ml) of redirected lysis, SKMM2 cells co-cultured with healthy donor T cells (E:T 1:1, 72 h), DMSO control, mean of 3 donors: 0.09 ng/mL
- IC50 (ng/ml) of redirected lysis, SKMM2 cells co-cultured with healthy donor T cells (E:T 1:1, 72 h), with 1 µM dexamethasone, mean of 3 donors: 0.34 ng/mL
B1: CC-93269 (42-TCBcv) (bispecific antibody, human IgG1, kappa, L234A L235A)
heavy 1: not shown
heavy 2: EVQLLESGGGLVQPGGSLRLSCAASGFTFSDNAMGWVRQAPGKGLEWVSAISGPGSSTYYADSVKGRFTISRDNSKNTLYLQMNSLRAEDTAVYYCAKVLGWFDYWGQGTLVTVSSASTKGPSVFPLAPSSKSTSGGTAALGCLVEDYFPEPVTVSWNSGALTSGVHTFPAVLQSSGLYSLSSVVTVPSSSLGTQTYICNVNHKPSNTKVDEKVEPKSCDKTHTCPPCPAPEAAGGPSVFLFPPKPKDTLMISRTPEVTCVVVDVSHEDPEVKFNWYVDGVEVHNAKTKPREEQYNSTYRVVSVLTVLHQDWLNGKEYKCKVSNKALGAPIEKTISKAKGQPREPQVCTLPPSRDELTKNQVSLSCAVKGFYPSDIAVEWESNGQPENNYKTTPPVLDSDGSFFLVSKLTVDKSRWQQGNVFSCSVMHEALHNHYTQKSLSLSPGK
light 1: EIVLTQSPGTLSLSPGERATLSCRASQSVSDEYLSWYQQKPGQAPRLLIHSASTRATGIPDRFSGSGSGTDFTLAISRLEPEDFAVYYCQQYGYPPDFTFGQGTKVEIKRTVAAPSVFIFPPSDRKLKSGTASVVCLLNNFYPREAKVQWKVDNALQSGNSQESVTEQDSKDSTYSLSSTLTLSKADYEKHKVYACEVTHQGLSSPVTKSFNRGEC
light 2: EVQLLESGGGLVQPGGSLRLSCAASGFTFSTYAMNWVRQAPGKGLEWVSRIRSKYNNYATYYADSVKGRFTISRDDSKNTLYLQMNSLRAEDTAVYYCVRHGNFGNSYVSWFAYWGQGTLVTVSSASVAAPSVFIFPPSDEQLKSGTASVVCLLNNFYPREAKVQWKVDNALQSGNSQESVTEQDSKDSTYSLSSTLTLSKADYEKHKVYACEVTHQGLSSPVTKSFNRGEC
